Data published in patent US20190314526A1.

Tests used:
Experiment in all cases: cell-based or functional assay
[1] = biological target: AAV-2 capsid mutant G375P (rAAV-2 virion) (AAV-2) (UniProt P03135)
[2] = biological target: AAV-2 capsid mutant Q438A (rAAV-2 virion) (AAV-2) (UniProt P03135)
[3] = biological target: AAV-2 capsid mutant E411A/T413A/G449A/N450A (rAAV-2 virion) (AAV-2) (UniProt P03135)
[4] = biological target: AAV-2 capsid mutant G128A (rAAV-2 virion) (AAV-2) (UniProt P03135)
[5] = biological target: AAV-2 capsid mutant S130A (rAAV-2 virion) (AAV-2) (UniProt P03135)
[6] = biological target: AAV-2 capsid mutant D377A (rAAV-2 virion) (AAV-2) (UniProt P03135)
[7] = biological target: AAV-2 capsid mutant N568A/V571A (rAAV-2 virion) (AAV-2) (UniProt P03135)
[8] = biological target: AAV-2 capsid mutant R448K (rAAV-2 virion) (AAV-2) (UniProt P03135)
[9] = biological target: AAV-2 capsid mutant V571K (rAAV-2 virion) (AAV-2) (UniProt P03135)
[10] = biological target: AAV-2 capsid mutant R334A/N568A (rAAV-2 virion) (AAV-2) (UniProt P03135)
[11] = biological target: AAV-2 capsid mutant R334A/G449A/N568A (rAAV-2 virion) (AAV-2) (UniProt P03135)
[12] = biological target: AAV-2 capsid mutant S127A (rAAV-2 virion) (AAV-2) (UniProt P03135)
[13] = biological target: AAV-2 capsid mutant R334A/G449A (rAAV-2 virion) (AAV-2) (UniProt P03135)
[14] = biological target: AAV-2 capsid mutant D357E (rAAV-2 virion) (AAV-2) (UniProt P03135)
[15] = biological target: AAV-2 capsid mutant N568A (rAAV-2 virion) (AAV-2) (UniProt P03135)
[16] = biological target: AAV-2 with a wild-type capsid (rAAV-2 virion) (AAV-2) (UniProt P03135)
[17] = biological target: AAV-2 capsid mutant S130T (rAAV-2 virion) (AAV-2) (UniProt P03135)
[18] = biological target: AAV-2 capsid mutant Q452A (rAAV-2 virion) (AAV-2) (UniProt P03135)
[19] = biological target: AAV-2 capsid mutant N360H/S361A (rAAV-2 virion) (AAV-2) (UniProt P03135)
[20] = biological target: AAV-2 capsid mutant R334A (rAAV-2 virion) (AAV-2) (UniProt P03135)
[21] = biological target: AAV-2 capsid mutant T413K (rAAV-2 virion) (AAV-2) (UniProt P03135)
[22] = biological target: AAV-2 capsid mutant K395A (rAAV-2 virion) (AAV-2) (UniProt P03135)
[23] = biological target: AAV-2 capsid mutant H372K (rAAV-2 virion) (AAV-2) (UniProt P03135)
[24] = biological target: AAV-2 capsid mutant E437A (rAAV-2 virion) (AAV-2) (UniProt P03135)
[25] = biological target: AAV-2 capsid mutant N133A (rAAV-2 virion) (AAV-2) (UniProt P03135)
[26] = biological target: AAV-2 capsid mutant K407A (rAAV-2 virion) (AAV-2) (UniProt P03135)
[27] = biological target: AAV-2 capsid mutant F396A (rAAV-2 virion) (AAV-2) (UniProt P03135)
[28] = biological target: AAV-2 capsid mutant V571A (rAAV-2 virion) (AAV-2) (UniProt P03135)
[29] = biological target: AAV-2 capsid mutant N450A (rAAV-2 virion) (AAV-2) (UniProt P03135)
[30] = biological target: AAV-2 capsid mutant E394K (rAAV-2 virion) (AAV-2) (UniProt P03135)
[31] = biological target: AAV-2 capsid mutant E394A (rAAV-2 virion) (AAV-2) (UniProt P03135)
[32] = biological target: AAV-2 capsid mutant E411A/T413A/G449A/N450A/N568A/V571A (rAAV-2 virion) (AAV-2) (UniProt P03135)
[33] = biological target: AAV-2 capsid mutant H134Q (rAAV-2 virion) (AAV-2) (UniProt P03135)
[34] = biological target: AAV-2 capsid mutant D132N (rAAV-2 virion) (AAV-2) (UniProt P03135)
[35] = biological target: AAV-2 capsid mutant G449A (rAAV-2 virion) (AAV-2) (UniProt P03135)
[36] = biological target: AAV-2 capsid mutant T354A (rAAV-2 virion) (AAV-2) (UniProt P03135)
[37] = biological target: AAV-2 capsid mutant W365A (rAAV-2 virion) (AAV-2) (UniProt P03135)
[38] = biological target: AAV-2 capsid mutant K390A (rAAV-2 virion) (AAV-2) (UniProt P03135)
[39] = biological target: AAV-2 capsid mutant E418A (rAAV-2 virion) (AAV-2) (UniProt P03135)
[40] = biological target: AAV-2 capsid mutant K569A (rAAV-2 virion) (AAV-2) (UniProt P03135)

“purified human IgG from >10,000 donors (Panglobulin, ZLB Bioplasma AG)” was tested, and the Fold decrease in neutralizing titer [1] was 1.9 fold, the Fold decrease in neutralizing titer [2] was 1.3 fold and the Fold decrease in neutralizing titer [3] was 1 fold. For the same substance, the Fold decrease in neutralizing titer [4] was 4.1 fold, the Fold decrease in neutralizing titer [5] was 1.4 fold and the Fold decrease in neutralizing titer [6] was 1.9 fold. For the same substance, the Fold decrease in neutralizing titer [7] was 2.5 fold, the Fold decrease in neutralizing titer [8] was 1 fold and the Fold decrease in neutralizing titer [9] was 1 fold. For the same substance, the Fold decrease in neutralizing titer [10] was 2.4 fold, the Fold decrease in neutralizing titer [11] was 3 fold and the Fold decrease in neutralizing titer [12] was 2.2 fold. It also gave a Fold decrease in neutralizing titer [13] of 3.9 fold, a Fold decrease in neutralizing titer [14] of 1.7 fold and a Fold decrease in neutralizing titer [15] of 2 fold. For the same substance, the Fold decrease in neutralizing titer [16] was 1 fold, the Fold decrease in neutralizing titer [17] was 1.8 fold and the Fold decrease in neutralizing titer [18] was 1.3 fold. It also gave a Fold decrease in neutralizing titer [19] of 2.1 fold, a Fold decrease in neutralizing titer [20] of 2.2 fold and a Fold decrease in neutralizing titer [21] of 2.6 fold. The Fold decrease in neutralizing titer [22] was 4.9 fold, the Fold decrease in neutralizing titer [23] was 1.1 fold and the Fold decrease in neutralizing titer [24] was 2 fold. The Fold decrease in neutralizing titer [25] was 0.9 fold, the Fold decrease in neutralizing titer [26] was 3.3 fold and the Fold decrease in neutralizing titer [27] was 1.6 fold. The Fold decrease in neutralizing titer [28] was 3.9 fold, the Fold decrease in neutralizing titer [29] was 1.6 fold and the Fold decrease in neutralizing titer [30] was 2.3 fold. For the same substance, the Fold decrease in neutralizing titer [31] was 1.5 fold, the Fold decrease in neutralizing titer [32] was 1.3 fold and the Fold decrease in neutralizing titer [33] was 1.5 fold. The Fold decrease in neutralizing titer [34] was 3.8 fold, the Fold decrease in neutralizing titer [35] was 2.5 fold and the Fold decrease in neutralizing titer [36] was 2.9 fold. The Fold decrease in neutralizing titer [37] was 10.4 fold, the Fold decrease in neutralizing titer [38] was 2.3 fold and the Fold decrease in neutralizing titer [39] was 1.5 fold. The Fold decrease in neutralizing titer [40] was 4 fold.
